Values quoted from earlier work in paper PMC4549621.
pKd: −log10 of the molar value.

Biological target: amyloid-beta monomer Abeta (Homo sapiens) (UniProt P05067)

pKd: 9.22
Substance: gantenerumab
